Source: US20210139548A1 (published 2021)
*1 amine or outer side, *2 acyl side, *3 side chain or, on linkers, in order; H or OH if unused. Side-chain parts run from the residue outwards. The star is where a group is joined. C18 diacid = O=C(O)CCCCCCCCCCCCCCCCC(=O)*; γGlu = O=C(O)[C@H](CCC(=O)[*:2])N[*:1]; Isovaleryl = CC(C)CC(=O)*; AEEA = NCCOCCOCC(=O)O

B1: Compound 101 (peptide)
peptide: Isovaleryl-APEK([AEEA-AEEA-γGlu-C18 diacid])PEEDATPEELQRYYVELRHYYNWLTRQRY-NH2
SMILES: CC(C)CC(=O)N[C@@H](C)C(=O)N1CCC[C@H]1C(=O)N[C@@H](CCC(=O)O)C(=O)N[C@@H](CCCCNC(=O)COCCOCCNC(=O)COCCOCCNC(=O)CC[C@H](NC(=O)CCCCCCCCCCCCCCCCC(=O)O)C(=O)O)C(=O)N1CCC[C@H]1C(=O)N[C@@H](CCC(=O)O)C(=O)N[C@@H](CCC(=O)O)C(=O)N[C@@H](CC(=O)O)C(=O)N[C@@H](C)C(=O)N[C@H](C(=O)N1CCC[C@H]1C(=O)N[C@@H](CCC(=O)O)C(=O)N[C@@H](CCC(=O)O)C(=O)N[C@@H](CC(C)C)C(=O)N[C@@H](CCC(N)=O)C(=O)N[C@@H](CCCNC(=N)N)C(=O)N[C@@H](Cc1ccc(O)cc1)C(=O)N[C@@H](Cc1ccc(O)cc1)C(=O)N[C@H](C(=O)N[C@@H](CCC(=O)O)C(=O)N[C@@H](CC(C)C)C(=O)N[C@@H](CCCNC(=N)N)C(=O)N[C@@H](Cc1c[nH]cn1)C(=O)N[C@@H](Cc1ccc(O)cc1)C(=O)N[C@@H](Cc1ccc(O)cc1)C(=O)N[C@@H](CC(N)=O)C(=O)N[C@@H](Cc1c[nH]c2ccccc12)C(=O)N[C@@H](CC(C)C)C(=O)N[C@H](C(=O)N[C@@H](CCCNC(=N)N)C(=O)N[C@@H](CCC(N)=O)C(=O)N[C@@H](CCCNC(=N)N)C(=O)N[C@@H](Cc1ccc(O)cc1)C(N)=O)[C@@H](C)O)C(C)C)[C@@H](C)O
B2: Compound 103 (peptide)
peptide: Isovaleryl-APAK([AEEA-AEEA-γGlu-C18 diacid])PEEDASEEELQRYYVSLRHYYNWLTRQRY-NH2
SMILES: CC(C)CC(=O)N[C@@H](C)C(=O)N1CCC[C@H]1C(=O)N[C@@H](C)C(=O)N[C@@H](CCCCNC(=O)COCCOCCNC(=O)COCCOCCNC(=O)CC[C@H](NC(=O)CCCCCCCCCCCCCCCCC(=O)O)C(=O)O)C(=O)N1CCC[C@H]1C(=O)N[C@@H](CCC(=O)O)C(=O)N[C@@H](CCC(=O)O)C(=O)N[C@@H](CC(=O)O)C(=O)N[C@@H](C)C(=O)N[C@@H](CO)C(=O)N[C@@H](CCC(=O)O)C(=O)N[C@@H](CCC(=O)O)C(=O)N[C@@H](CCC(=O)O)C(=O)N[C@@H](CC(C)C)C(=O)N[C@@H](CCC(N)=O)C(=O)N[C@@H](CCCNC(=N)N)C(=O)N[C@@H](Cc1ccc(O)cc1)C(=O)N[C@@H](Cc1ccc(O)cc1)C(=O)N[C@H](C(=O)N[C@@H](CO)C(=O)N[C@@H](CC(C)C)C(=O)N[C@@H](CCCNC(=N)N)C(=O)N[C@@H](Cc1c[nH]cn1)C(=O)N[C@@H](Cc1ccc(O)cc1)C(=O)N[C@@H](Cc1ccc(O)cc1)C(=O)N[C@@H](CC(N)=O)C(=O)N[C@@H](Cc1c[nH]c2ccccc12)C(=O)N[C@@H](CC(C)C)C(=O)N[C@H](C(=O)N[C@@H](CCCNC(=N)N)C(=O)N[C@@H](CCC(N)=O)C(=O)N[C@@H](CCCNC(=N)N)C(=O)N[C@@H](Cc1ccc(O)cc1)C(N)=O)[C@@H](C)O)C(C)C
B3: Compound 102 (peptide)
peptide: Isovaleryl-APEK([AEEA-AEEA-γGlu-C18 diacid])PEEDASPEELQRYYVTLRHYYNWLTRQRY-NH2
SMILES: CC(C)CC(=O)N[C@@H](C)C(=O)N1CCC[C@H]1C(=O)N[C@@H](CCC(=O)O)C(=O)N[C@@H](CCCCNC(=O)COCCOCCNC(=O)COCCOCCNC(=O)CC[C@H](NC(=O)CCCCCCCCCCCCCCCCC(=O)O)C(=O)O)C(=O)N1CCC[C@H]1C(=O)N[C@@H](CCC(=O)O)C(=O)N[C@@H](CCC(=O)O)C(=O)N[C@@H](CC(=O)O)C(=O)N[C@@H](C)C(=O)N[C@@H](CO)C(=O)N1CCC[C@H]1C(=O)N[C@@H](CCC(=O)O)C(=O)N[C@@H](CCC(=O)O)C(=O)N[C@@H](CC(C)C)C(=O)N[C@@H](CCC(N)=O)C(=O)N[C@@H](CCCNC(=N)N)C(=O)N[C@@H](Cc1ccc(O)cc1)C(=O)N[C@@H](Cc1ccc(O)cc1)C(=O)N[C@H](C(=O)N[C@H](C(=O)N[C@@H](CC(C)C)C(=O)N[C@@H](CCCNC(=N)N)C(=O)N[C@@H](Cc1c[nH]cn1)C(=O)N[C@@H](Cc1ccc(O)cc1)C(=O)N[C@@H](Cc1ccc(O)cc1)C(=O)N[C@@H](CC(N)=O)C(=O)N[C@@H](Cc1c[nH]c2ccccc12)C(=O)N[C@@H](CC(C)C)C(=O)N[C@H](C(=O)N[C@@H](CCCNC(=N)N)C(=O)N[C@@H](CCC(N)=O)C(=O)N[C@@H](CCCNC(=N)N)C(=O)N[C@@H](Cc1ccc(O)cc1)C(N)=O)[C@@H](C)O)[C@@H](C)O)C(C)C
B4: Compound 109 (peptide)
peptide: Isovaleryl-APEK([AEEA-AEEA-γGlu-C18 diacid])PEEAASPEELQRYYVSLRHYYNWLTRQRY-NH2
SMILES: CC(C)CC(=O)N[C@@H](C)C(=O)N1CCC[C@H]1C(=O)N[C@@H](CCC(=O)O)C(=O)N[C@@H](CCCCNC(=O)COCCOCCNC(=O)COCCOCCNC(=O)CC[C@H](NC(=O)CCCCCCCCCCCCCCCCC(=O)O)C(=O)O)C(=O)N1CCC[C@H]1C(=O)N[C@@H](CCC(=O)O)C(=O)N[C@@H](CCC(=O)O)C(=O)N[C@@H](C)C(=O)N[C@@H](C)C(=O)N[C@@H](CO)C(=O)N1CCC[C@H]1C(=O)N[C@@H](CCC(=O)O)C(=O)N[C@@H](CCC(=O)O)C(=O)N[C@@H](CC(C)C)C(=O)N[C@@H](CCC(N)=O)C(=O)N[C@@H](CCCNC(=N)N)C(=O)N[C@@H](Cc1ccc(O)cc1)C(=O)N[C@@H](Cc1ccc(O)cc1)C(=O)N[C@H](C(=O)N[C@@H](CO)C(=O)N[C@@H](CC(C)C)C(=O)N[C@@H](CCCNC(=N)N)C(=O)N[C@@H](Cc1c[nH]cn1)C(=O)N[C@@H](Cc1ccc(O)cc1)C(=O)N[C@@H](Cc1ccc(O)cc1)C(=O)N[C@@H](CC(N)=O)C(=O)N[C@@H](Cc1c[nH]c2ccccc12)C(=O)N[C@@H](CC(C)C)C(=O)N[C@H](C(=O)N[C@@H](CCCNC(=N)N)C(=O)N[C@@H](CCC(N)=O)C(=O)N[C@@H](CCCNC(=N)N)C(=O)N[C@@H](Cc1ccc(O)cc1)C(N)=O)[C@@H](C)O)C(C)C
B5: Compound 107 (peptide)
peptide: Isovaleryl-APEK([AEEA-AEEA-γGlu-C18 diacid])PEEDASPEELQKYYVALRHYYNWLTRQRY-NH2
SMILES: CC(C)CC(=O)N[C@@H](C)C(=O)N1CCC[C@H]1C(=O)N[C@@H](CCC(=O)O)C(=O)N[C@@H](CCCCNC(=O)COCCOCCNC(=O)COCCOCCNC(=O)CC[C@H](NC(=O)CCCCCCCCCCCCCCCCC(=O)O)C(=O)O)C(=O)N1CCC[C@H]1C(=O)N[C@@H](CCC(=O)O)C(=O)N[C@@H](CCC(=O)O)C(=O)N[C@@H](CC(=O)O)C(=O)N[C@@H](C)C(=O)N[C@@H](CO)C(=O)N1CCC[C@H]1C(=O)N[C@@H](CCC(=O)O)C(=O)N[C@@H](CCC(=O)O)C(=O)N[C@@H](CC(C)C)C(=O)N[C@@H](CCC(N)=O)C(=O)N[C@@H](CCCCN)C(=O)N[C@@H](Cc1ccc(O)cc1)C(=O)N[C@@H](Cc1ccc(O)cc1)C(=O)N[C@H](C(=O)N[C@@H](C)C(=O)N[C@@H](CC(C)C)C(=O)N[C@@H](CCCNC(=N)N)C(=O)N[C@@H](Cc1c[nH]cn1)C(=O)N[C@@H](Cc1ccc(O)cc1)C(=O)N[C@@H](Cc1ccc(O)cc1)C(=O)N[C@@H](CC(N)=O)C(=O)N[C@@H](Cc1c[nH]c2ccccc12)C(=O)N[C@@H](CC(C)C)C(=O)N[C@H](C(=O)N[C@@H](CCCNC(=N)N)C(=O)N[C@@H](CCC(N)=O)C(=O)N[C@@H](CCCNC(=N)N)C(=O)N[C@@H](Cc1ccc(O)cc1)C(N)=O)[C@@H](C)O)C(C)C
B6: Compound 108 (peptide)
peptide: Isovaleryl-APEK([AEEA-AEEA-γGlu-C18 diacid])PEEDASPEELQRYYVELRHYYNWLTRQRY-NH2
SMILES: CC(C)CC(=O)N[C@@H](C)C(=O)N1CCC[C@H]1C(=O)N[C@@H](CCC(=O)O)C(=O)N[C@@H](CCCCNC(=O)COCCOCCNC(=O)COCCOCCNC(=O)CC[C@H](NC(=O)CCCCCCCCCCCCCCCCC(=O)O)C(=O)O)C(=O)N1CCC[C@H]1C(=O)N[C@@H](CCC(=O)O)C(=O)N[C@@H](CCC(=O)O)C(=O)N[C@@H](CC(=O)O)C(=O)N[C@@H](C)C(=O)N[C@@H](CO)C(=O)N1CCC[C@H]1C(=O)N[C@@H](CCC(=O)O)C(=O)N[C@@H](CCC(=O)O)C(=O)N[C@@H](CC(C)C)C(=O)N[C@@H](CCC(N)=O)C(=O)N[C@@H](CCCNC(=N)N)C(=O)N[C@@H](Cc1ccc(O)cc1)C(=O)N[C@@H](Cc1ccc(O)cc1)C(=O)N[C@H](C(=O)N[C@@H](CCC(=O)O)C(=O)N[C@@H](CC(C)C)C(=O)N[C@@H](CCCNC(=N)N)C(=O)N[C@@H](Cc1c[nH]cn1)C(=O)N[C@@H](Cc1ccc(O)cc1)C(=O)N[C@@H](Cc1ccc(O)cc1)C(=O)N[C@@H](CC(N)=O)C(=O)N[C@@H](Cc1c[nH]c2ccccc12)C(=O)N[C@@H](CC(C)C)C(=O)N[C@H](C(=O)N[C@@H](CCCNC(=N)N)C(=O)N[C@@H](CCC(N)=O)C(=O)N[C@@H](CCCNC(=N)N)C(=O)N[C@@H](Cc1ccc(O)cc1)C(N)=O)[C@@H](C)O)C(C)C

Target: T1, human neuropeptide Y2 receptor (human, UniProt P49146 1-381)
T1 construct: whole, on cells; also called hNPY2 receptor; hNPY2-R
T1 sequence (looked up): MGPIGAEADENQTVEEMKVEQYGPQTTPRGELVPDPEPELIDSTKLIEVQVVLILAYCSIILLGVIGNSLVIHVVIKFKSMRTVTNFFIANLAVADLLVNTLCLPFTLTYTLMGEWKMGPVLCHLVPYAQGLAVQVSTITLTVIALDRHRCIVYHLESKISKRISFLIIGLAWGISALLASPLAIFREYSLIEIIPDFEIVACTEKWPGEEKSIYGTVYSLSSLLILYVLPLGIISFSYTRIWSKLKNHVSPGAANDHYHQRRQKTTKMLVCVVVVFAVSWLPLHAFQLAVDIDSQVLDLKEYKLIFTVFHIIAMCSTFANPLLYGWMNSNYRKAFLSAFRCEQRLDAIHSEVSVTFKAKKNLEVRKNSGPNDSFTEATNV
Experiment: radioligand competition (125I-PYY(1-36)), hNPY2R membranes
How it was run: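 Commercial human Y2 receptor membranes (0.5 μg protein/well) were incubated with peptide for 2 h at room temperature in 50 mM HEPES, 5 mM MgCl₂, 1 mM CaCl₂, pH 7.4, with 0.2% ovalbumin. Bound radioligand was separated on PEI-soaked GF/C filters and counted by scintillation, and IC₅₀ came from nonlinear sigmoidal regression.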

| Binder | Ki [nM] |
| --- | --- |
| B1 | 3.29 |
| B2 | 0.95 |
| B3 | 0.87 |
| B4 | 0.94 |
| B5 | 1.1 |
| B6 | 0.99 |
